Tested on: patients with higher NaPi2b expression
Experiment: MER-XMT-1536-1 clinical trial (ongoing, preliminary data), XMT-1536 monotherapy
Format: in vivo, human
Settings: patients with higher NaPi2b expression (n=47); preliminary data from MER-XMT-1536-1

B1: XMT-1536: NaPi2b-targeted polymer antibody-drug conjugate: about 8-12 AF-HPA molecules conjugated to cysteines of antibody XMT-1535 via a PHF scaffold (conjugate, chains of the INN, looked up)
VH: QVQLVQSGAEVVKPGASVKMSCKASGYTFTGYNIHWVKQAPGQGLEWIGAIYPGNGDTSYKQKFRGRATLTADTSTSTVYMELSSLRSEDSAVYYCARGETARATFAYWGQGTLVTVSS
VL: DIQMTQSPSSLSASVGDRVTITCSASQDIGNFLNWYQQKPGKTVKVLIYYTSSLYSGVPSRFSGSGSGTDYTLTISSLQPEDFATYYCQQYSKLPLTFGQGTKLELK
modifications: AF-HPA payload via PHF polymer scaffold
notes: NaPi2b-targeted polymer antibody-drug conjugate: about 8-12 AF-HPA molecules conjugated to cysteines of antibody XMT-1535 via a PHF scaffold
DCR (disease control rate): 74% | ORR (objective response rate): 32% | median duration of response: approximately 5 months

Reference: patent publication US20230338569A1, “NaPi2b-TARGETED POLYMER ANTIBODY-DRUG CONJUGATE FOR THE TREATMENT OF OVARIAN CANCER” (Mersana Therapeutics, Inc., priority 2021, published 2023)
